# Measured values published in patent publication US20080241867.
# B1: Papain (protein)
# chain: IPEYVDWRQKGAVTPVKNQGSCGSCWAFSAVVTIEGIIKIRTGNLNEYSEQELLDCDRRSYGCNGGYPWSALQLVAQYGIHYRNTYPYEGVQRYCRSREKGPYAAKTDGVRQVQPYNEGALLYSIANQPVSVVLEAAGKDFQLYRGGIFVGPCGNKVDHAVAAVGYGPNYILIKNSWGTGWGENGYIRIKRGTGNSYGVCGLYTSSFYPVKN
# B2: Purified Bromelain (protein)
# chain: AVPQSIDWRDYGAVTSVKNQNPCGACWAFAAIATVESIYKIKKGILEPLSEQQVLDCAKGYGCKGGWEFRAFEFIISNKGVASGAIYPYKAAKGTCKTDGVPNSAYITGYARVPRNNESSMMYAVSKQPITVAVDANANFQYYKSGVFNGPCGTSLNHAVTAIGYGQDSIIYPKKWGAKWGEAGYIRMARDVSSSSGICGIAIDPLYPTLEE
# B3: Proteinase K (protein)
# chain: AAQTNAPWGLARISSTSPGTSTYYYDESAGQGSCVYVIDTGIEASHPEFEGRAQMVKTYYYSSRDGNGHGTHCAGTVGSRTYGVAKKTQLFGVKVLDDNGSGQYSTIIAGMDFVASDKNNRNCPKGVVASLSLGGGYSSSVNSAAARLQSSGVMVAVAAGNNNADARNYSPASEPSVCTVGASDRYDRRSSFSNYGSVLDIFGPGTSILSTWIGGSTRSISGTSMATPHVAGLAAYLMTLGKTTAASACRYIADTANKGDLSNIPFGTVNLLAYNNYQA
# Target: hybrid GFP construct containing the protease cleavage sequence SVPSGCG (SEQ ID NO:21) followed by histidine residues
Protein,"% GFP Released (60 minutes, 37° C.) [%]","Micrograms of GFP Released by Protease (overnight, IMAC beads) [µg]","averaged GFP signal (instrument signal times dilution factor, four readings)",fluorescence units of eluant diluted 20-fold,"µg GFP Released by Protease (60 minutes, 37° C.) [µg]"
B1,97,244,"papain yielded an averaged (over four readings) GFP signal of 282,000","fluorescence units of 400, 400, and 390, respectively",109
B2,98,35,"bromelain yielded a averaged (over four readings) GFP signal of 281,500","fluorescence units of 400, 400, and 390, respectively",109
B3,–,94,–,–,–
